Here are results for five molecules from patent US20250332297A1, “DLL3-SPECIFIC BINDING CONSTRUCTS AND THEIR USE IN RADIOTHERAPY” (MOLECULAR PARTNERS AG, priority 2024, published 2025).

Numbering of substitutions follows the chain as printed.

First the molecules themselves.
T1: human DLL3 expressed on HEK293T-huDLL3 cells (Homo sapiens, UniProt Q9NYJ7)
T1 construct: expressed in transfected cells; host or cells: HEK293T-hDLL3
T1 sequence (Q9NYJ7 27-618): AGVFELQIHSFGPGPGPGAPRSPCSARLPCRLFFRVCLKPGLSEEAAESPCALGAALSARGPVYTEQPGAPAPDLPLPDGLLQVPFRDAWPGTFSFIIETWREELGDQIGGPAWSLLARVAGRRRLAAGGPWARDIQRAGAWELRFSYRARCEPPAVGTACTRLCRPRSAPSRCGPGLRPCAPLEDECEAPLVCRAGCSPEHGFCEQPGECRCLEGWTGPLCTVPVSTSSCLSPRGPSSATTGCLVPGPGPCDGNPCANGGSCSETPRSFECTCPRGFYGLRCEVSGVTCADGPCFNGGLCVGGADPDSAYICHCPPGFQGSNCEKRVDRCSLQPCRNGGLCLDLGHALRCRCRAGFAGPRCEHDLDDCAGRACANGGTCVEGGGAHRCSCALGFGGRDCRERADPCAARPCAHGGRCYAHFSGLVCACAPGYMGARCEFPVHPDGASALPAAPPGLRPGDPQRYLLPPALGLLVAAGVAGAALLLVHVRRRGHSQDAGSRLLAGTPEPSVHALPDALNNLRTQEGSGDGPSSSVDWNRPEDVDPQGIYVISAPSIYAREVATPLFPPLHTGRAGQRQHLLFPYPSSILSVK

B1: MAM160: Two domain (2D) ankyrin repeat protein: serum albumin-specific domain (SEQ ID NO: 7), PT linker, DLL3-specific domain MAM120 (protein)
chain: DLGKKLLEAARAGQDDEVRELLKAGADVNAKDYFSHTPLHLAARNGHLKIVEVLLKAGADVNAKDFAGKTPLHLAADAGHLEIVEVLLKAGADVNAQDIFGKTPADIAADAGHEDIAEVLQKAAGSPTPTPTTPTPTPTTPTPTPTGSDLGTKLLSAAADGQDDEVRELLQAGADVNAKDLFGYTPLHLAAWRGHLEIVEVLLEAGADVNAKDAAGLTPLHLAAWFGHLEIVEVLLEAGADVNAQDVQGVTPADLAAKEGHEDIAEVLQQAA
modifications: Ankyrin repeat protein (MAM160)
B2: MAM279: Two domain (2D) ankyrin repeat protein: serum albumin-specific domain (SEQ ID NO: 7), PT linker, DLL3-specific domain of MAM093 (protein)
chain: DLGKKLLEAARAGQDDEVRELLKAGADVNAKDYFSHTPLHLAARNGHLKIVEVLLKAGADVNAKDFAGKTPLHLAADAGHLEIVEVLLKAGADVNAQDIFGKTPADIAADAGHEDIAEVLQKAAGSPTPTPTTPTPTPTTPTPTPTGSDLGKKLLAAAAQGQDDEVRELLKAGANVNAKDLFGYTPLHLAAWRGHLEIVEVLLKAGADVNAKDAAGETPLHLAAWFGHLEIVEVLLKAGADVNAQDLQGKTPADLAAKEGHEDIAEVLQKAA
modifications: Ankyrin repeat protein (MAM279)
B3: MAM283: Two domain (2D) ankyrin repeat protein: serum albumin-specific domain (SEQ ID NO: 7), PT linker, DLL3-specific domain (SEQ ID NO: 3) (protein)
chain: B1 chain with T152K, S156A, L217E, V250K
modifications: Ankyrin repeat protein (MAM283)
B4: MAM282: Two domain (2D) ankyrin repeat protein: serum albumin-specific domain (SEQ ID NO: 7), PT linker, DLL3-specific domain (SEQ ID NO: 2) (protein)
chain: DLGKKLLEAARAGQDDEVRELLKAGADVNAKDYFSHTPLHLAARNGHLKIVEVLLKAGADVNAKDFAGKTPLHLAADAGHLEIVEVLLKAGADVNAQDIFGKTPADIAADAGHEDIAEVLQKAAGSPTPTPTTPTPTPTTPTPTPTGSDLGKKLLAAAREGQDDEVRELLKAGADVNAKDIWGQTPLHIAAWFGHLEIVEVLLKAGADVNAKDQTGHTPLHLAAKFGHLEIVEVLLKAGADVNAQDLLGRTPADLAAEEGHEDIAEVLQKAA
modifications: Ankyrin repeat protein (MAM282)
B5: Rova: Rova antibody, DLL3-binding benchmark antibody used as positive control and comparison (antibody, chains of the INN, looked up, V domains shown)
VH: QVQLVQSGAEVKKPGASVKVSCKASGYTFTNYGMNWVRQAPGQGLEWMGWINTYTGEPTYADDFKGRVTMTTDTSTSTAYMELRSLRSDDTAVYYCARIGDSSPSDYWGQGTLVTVSS
VL: EIVMTQSPATLSVSPGERATLSCKASQSVSNDVVWYQQKPGQAPRLLIYYASNRYTGIPARFSGSGSGTEFTLTISSLQSEDFAVYYCQQDYTSPWTFGQGTKLEIK

The target in one data set is T2, mouse serum albumin (Mus musculus, UniProt P07724).
T2 construct: purchased Sigma-Aldrich
T2 sequence (P07724 25-608): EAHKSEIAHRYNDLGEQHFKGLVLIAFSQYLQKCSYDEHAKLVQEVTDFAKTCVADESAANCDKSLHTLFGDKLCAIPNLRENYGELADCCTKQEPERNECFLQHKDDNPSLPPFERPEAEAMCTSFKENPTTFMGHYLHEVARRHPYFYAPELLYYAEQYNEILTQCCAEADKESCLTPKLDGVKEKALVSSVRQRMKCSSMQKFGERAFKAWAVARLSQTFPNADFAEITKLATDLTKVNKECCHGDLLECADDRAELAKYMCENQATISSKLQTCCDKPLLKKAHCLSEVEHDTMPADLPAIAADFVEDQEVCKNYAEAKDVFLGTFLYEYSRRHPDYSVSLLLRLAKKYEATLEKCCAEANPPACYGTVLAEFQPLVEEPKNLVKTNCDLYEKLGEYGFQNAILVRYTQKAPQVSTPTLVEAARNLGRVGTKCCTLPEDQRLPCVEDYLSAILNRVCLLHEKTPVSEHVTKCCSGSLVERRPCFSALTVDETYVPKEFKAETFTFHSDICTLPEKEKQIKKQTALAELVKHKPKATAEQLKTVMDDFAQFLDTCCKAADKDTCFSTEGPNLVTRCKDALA
Description: SPR binding to mouse serum albumin (Example 1). As to conditions: immobilized MSA, 1:1 Langmuir, Table 2. Here is the method:
Similarly, a SPR assay was used to determine the binding kinetics to human or mouse serum albumin. […] All analytes (3-fold dilution ranging from 1000-12.35 nM) were injected in succession for 240 s (25 μl/min) and dissociation was recorded for 600 s (25 μl/min). […] The obtained SPR traces were used to determine the ankyrin repeat protein-serum albumin interaction parameters, summarized in Table 2.
As for B1, the affinity, expressed as Kd, was 336 nM; the “Koff MSA” value is 0.0271 s⁻¹; the “Kon MSA” value came to 80430 M⁻¹ s⁻¹.

B2: the affinity, expressed as Kd, was 367 nM; the “Koff MSA” value was 0.0335 s⁻¹; the “Kon MSA” value is 91240 M⁻¹ s⁻¹.

On to B3, for which the Kd is 507 nM, the “Koff MSA” value worked out at 0.0378 s⁻¹ and the “Kon MSA” value is 74680 M⁻¹ s⁻¹.

B4: the Kd was determined as 335 nM, the “Koff MSA” value was 0.0354 s⁻¹ and the “Kon MSA” value worked out at 105900 M⁻¹ s⁻¹.

System in a further data set: not listed separately
As to the kind of experiment: Thermal stability by Circular Dichroism (CD) spectroscopy. Type of data set: physicochemical. The following applies: CD at 222 nm, 20° C. to 90° C., 2 μM in PBS pH7.4; DARPins with C-terminal Cysteine-containing tag (SEQ ID NOs: 15, 16, 18). Here is the method:
Labelling of proteins conjugated to a chelator with a radionuclide may require harsh conditions, including high temperatures. The thermal stability and the propensity to unfold/refold of 2D DARPins MAM279, MAM283 and MAM282 were assessed using Circular Dichroism (CD) spectroscopy.
Samples of the DARPins were diluted to 2 μM in PBS, pH7.4. The assessment was done using a Jasco J-815 spectrophotometer. The Tm (melting temperature) of the selected proteins was determined by CD as a parameter for thermal stability. In brief, the ellipticity was recorded at […] and a temperature range from 20° C. to 90° C. was applied followed by reverse scan to record the refolding behavior. The Tm of the selected ankyrin repeat protein constructs is the midpoint of the protein unfolding. Spectra from 190-250 nm were recorded before and after the temperature scan.
Turning to B2, the “melting temperature (Tm)” value is “above 85 °C”.

Take B3: the “melting temperature (Tm)” value is “about 82 °C”.

As to B4, the “melting temperature (Tm)” value was “above 90 °C”.

For another data set, the target named is T1, human DLL3 expressed on HEK293T-huDLL3 cells. As to the kind of experiment: Cell binding titration on HEK293T-hDLL3 cells. Type of data set: cell-based. As to conditions: absence of human serum albumin, read-out: Cell binding EC50, w/o HSA. The procedure:
Cell binding titration assays were performed for selected His-tagged single domain (1 D) and two domain (2D) designed ankyrin repeat proteins to determine binding to human DLL3 expressed on HEK293T-huDLL3 cells in absence and presence of human serum albumin. Controls included Rova antibody as a positive control and a non-binding DARPin comprising SEQ ID NO: 21 as a negative control. HEK293T-hDLL3 cells are HEK293T cells that were stably transfected to express human DLL3 on their surface.
In brief, 1×10^5 cells/well were resuspended in 100 μl DARPin dilution (500 nM, 1:5 serial diluted) and incubated for 1 h at 4° C. Cells were washed twice with PBS and resuspended in 100 μl anti-DARPin antibody (rabbit anti-DARPin 1.4.8) and LIVE/DEAD fixable cell stain (1:1000, Thermo Fisher #L34957). This step was performed in absence and presence of […] Human Serum Albumin (CSL Behring #150570). After incubation and washing, cells were incubated with detection antibody for 30 minutes (Goat anti-Human IgG (H+L), AF647, Thermo Fisher #21445). Cells were fixed (Paraformaldehyde Solution, LucernaChem) and acquired at Attune N×T (Thermo Life Technologies). Raw fcs files were exported and analyzed using FlowJo software. MFI values of live AF647-positive cells were exported from FlowJo and plotted using GraphPad Prism software. None of the tested ankyrin repeat proteins show binding to the HEK293T wildtype cells.
On to B5, for which the EC50 was found to be 0.1 nM.

In the case of B1, the EC50 was found to be 18.9 nM.

Consider B2, for which the EC50 turned out to be 14.9 nM.

On to B3, for which the EC50 was 22.1 nM.

For B4, the EC50 came to 21.2 nM.
